Data published in the DeepSol protein solubility set.

Assay: soluble on expression in E. coli; label from the status in PepcDB or PDB records

For “MGSSHHHHHHSSGRENLYFQGHMPSNLNIVKVTKPQEENKNFLHKNTNEPNEMEQSQTQEAVTENFTENSNLSANEHAARRGRLNLKTVDHIETYPIVQETEEIAKKIALTRIILAQTKPRIDKVVVSRPVQAVAPVVNFFDKMANSTLSTVERVVPSLKTKTYKRLGEEIALPYTLSKKYGKQLRDTTARNGDNYVYQPVHGRLMKFRKYYNEKFIDTKGKPLIRGQLDPVLLPVNNTFEKVTVKYLPKGKKVPNDSFSCEFNRGLALEYNFMTRAVSAVSHQVVGIAKLPIAYGYHTNSVYNKNLDKQADLKMKNVLRGTWDTITDLEREIWASVTDRSLFRFFGNKSEGGDLPHLVQ”, which “soluble on expression in E. coli” value is on record?
Its value is “soluble”.

For “MAICILHYTNAQLARDWSFQQMCNFWGGEQTYHARKDGFKSLEGDKCTFNFPKASDNQKSAQQYCEDNVPYHINNAEASEYKTTCEAEATLICKSGWVQMFGRCYKITKTMMTRDKAEKHCKNQQDQTSTIAFMHREALPFRWNDYFTRVSRIWMDASEVVTNDLIYDVEGGNVLLAFDGYKYNLPNVAIARVSKDETAMVLCEYTPPMTKSESNYLLRRYGEIYYPPLVTSEAVYIRTTSSRIRNEEDKLADHKYCTEVMKPVFRGGRAQSASPTQGLHMPTQMRGINKSAPFKQNPTIKGEAVPFPLDNAIWRKGEPNESCDAATWSSAVVLSRRENEGLEVMSDARYAPIYCEQIVKGLSYTKCPDGFVEYYRKNEGKTWCHKYVWDDTANYDNAEQKCQQLGAHLSSFTSDEEFQFLNDMIAKSEQLPNTDYIEVLLGARRRKRCNDLSIVGRGGFSSDKESECSRRRVFEWLHDVAENPPNFLDAYWPSPYEPNHALVDEECLVMMSGKTNGGMVMEQGN”, which “soluble on expression in E. coli” value is on record?
Its value is “not soluble”.

For “MPKETFFNLPKDKRNLIISAAMDEFSKAGYNTASINQICKKSNIPKGSFYQYFTDKLDLYVYIMTLTIEEKIKFFSSAIAEFHTLTFLEQFRLLFLKGLEFAKKHPQYAALADQFSKEDNESVKSAVIKEGDKQAESLFMQMIHNAKTKGEIDSKVDSLALCLLLQSLNSAVNKYMIGKFGGISYEYNQEDINNFVDSLLDIIFSGIQNKAD”, which “soluble on expression in E. coli” value is on record?
Its value is “not soluble”.

Which “soluble on expression in E. coli” value does the source give for “MSLDLPAHARVVIVGGGVMGVGLAYHLAHEGWGGDTVLLEKAELTSGSTWHAAGQITHSTSSFGLGKCVDYNIGLYSGKLEAETGQAVTWHGCGSFRLAYTEDEMDWLRHTLSVGRSLGFNIELVGPKRIAELHPFYNLDGVLGALHTPDDGHVDPTNVTMAMAAGARAKGVRIFRHTCATNITQGANGEWVVETGKGTITCEHVVNAGGTYARQMGEWSGLQLPMTSMTHHYFVTEPVPEFQSLDRELPVIRDDRKVSGYIRMEQKRGLIGIYEKANPNAVWIDECPWDYENWLFDADYDRVMPWLEESLNRMPIFADLGIQREVHGAISHPPDGNPLIGPAPGVRNYWCCCGTQIGIGWGPGLSRELARWIVHGAADISMRDFDPRRFGAYATKDWQVIKAREDYCLRHEIPFPHFNRLAGRPVKPSPLYDRLKEKGAVYEEVYGHERPRWFARGIEQRDHYGFGRTPVHDMVATECAAVRSAAGIMDISAFTRVEVSGPDAGALLDRLTANRLPQKPGGIALTHMLNRRGRIELETTVVKLDEDRFYLVCAAFFEQRLLDHLAAHRGTADITVRNLSTDWAALALNGPHARDILAACTEADLSNARFKWLTAQQITVAGHSLWALRMSYAGELGWELHIPRDHALAVYDALWAAGQRYGLTDYGSFAMNALRMEKAFKGAGELTNEVTLAEADVLRFARTDKDYLGRDKTLNAGNLPWVCAYLEIAPDGRFDGNGGEAVLLDGKVVGSTASVAYGHTVGKILAFAYVKPQVNVPGTEVEVIIAGNPRKGRILGAPAYDPDSTKPRADAEGHHHHHH” here?
The value was “soluble”.

Which “soluble on expression in E. coli” value does the source give for “MSLVRNSSRLLRSQLKRVQSVPVALYHENVVEHYENPRNVGSLDKKDVTVGTGLVGAPACGDVMKLQIKVDENGKIVDAKFKTFGCGSAIASSSLATEWVKGKSIDEAGKLKNTDIAKELRLPPVKLHCSMLAEDAIKAALADYKVKQQKKVAN” here?
The value was “not soluble”.

Which “soluble on expression in E. coli” value does the source give for “MEKEGFARLFHNFDNVIEPKLCSTSGSVPSYLKGTMLRNGPGMFEIGDTKYQHWFDGMGFIQRYHFEDGKMYYSARYLESENYKKNMEAQRIVTGSFGTASFPDPCKSIFSRFFSSFVQSEGIHDNANVAFAPVGDGLYACTETPNMHRVDLDSLDTLEPVDFSKYVALHTCTAHQLFDENGDVYNIGSRFGPDAAHVFTVTKNPKNLQSDSDRSWEHTTKIGEIRCSETFYPTYMHSFGMSENYLIMFESPIRIDIKKFIMKRFITTTFRDCMKWHADKDVKIFILNKKTGEQVPLKLKMAPFFTFHHANTFERDGCLVVDYCRIEQAGNFDALLIENMKTGNFQNDALFLPYLTRVIIPLSIPDGAQPGDDLLKPLGWAKGCSAIFQDDGKIRLKEKRVCDISMEFPRYHWEKINMKPYNYVYGSSVLGAQKSETLPGIVKADLENGDHKVWRRENDKQICGEPIFVPNPEGVREDDGILIVPVMTISDGQRPFVLILEAKNLTEIARYTIPEARIPLGFHAFYQGRT” here?
The value was “not soluble”.

Which “soluble on expression in E. coli” value does the source give for “MSLPWLHRETARSFGGAGSTAGYEQVTAYTLTGQLQSRHLNLPQLDCDYDWNDNGQLIRISGPQESREYRYSDTGRLTGVHTTAANLDIDIPYATDPAGNRLPDPELHPDSTLTAWPDNRIAEDAHYVYRYDEYGRLTEKTDRIPEGVIRMHDERTHHYHYDNQHRLVFYTRIQYGEPLVESRYLYDPLGRRTGKRVWRRERDLTGWMSLSRKPEVTWYGWDGDRLTTVQTGTTRIQTVYRPGSFTPLIRIETENGEREKAQRRSLAEKLQQEGSEDGHGVVFPAELVRMLDRLEEEIRADRVSSESRAWLAQCGLTVEQLEKQVEPEYTPARTLHLYHCDHRGLPLALISEDGNTAWSAEYDEWGNQLNEENPHHLHQPYRLPGQQHDEESGLYYNRHRYYDPLQGRYITPDPIGLRGGWNMYQYPLNPIQVIDPMGLDAIENMTSGGLIYAVSGVPGLIVANSITNSAYQFGYDMDAIVGGAHNGAADAMRYCYLMCRMTKTEGHHHHHH” here?
Its value is “soluble”.

With “MGSDKIHHHHHHMNKELETLIMSAVDLPTIPVVATKVIELIEQEDVTIEKLATAVSSDPAVAARILKLSNSAYYGCQRQINTLSAAIMLLGFKTLKSLVIAASLKQLNRRFGLTEKMLWEHSVGAALAGRVIATQGRFINEETGFLVGLFHDLGKTIMSNRDPQKFQGVMMRCYNEGIPFAEAERSVYPYSHAEVGALVIRKWNFPESLSTAIMHHHQFGSAPITDQYDLFLTATASLANKFCKKLGIGDRDADDDLNLTNAPEAMLLGFTSDTAEKALATFQETFEENKSFFLND” as the sequence, how does the “soluble on expression in E. coli” value read?
Its value is “not soluble”.

For “MGSDKIHHHHHHMTTRILICDDSALARKQMAKALPPGLADDILFAGDGKEALTILRDQKAELLFLDLNMPELDGYQVLEHIRSEDLPVLTIVVSGDIQPEARERVRKLGAIDFIKKPTDTGVVSRLLKEYGFYRPSELEDTALNDASLHSREAAAPEISVSLSDYLQEISNVAMGRSSDLLARLLKVFVKQPIPKVAFIANSELHMAISAAQRAENYSAVCQGFTGAGIAGEALLLFEDASFREMAELLHYDVLEGESVNVEVLMDMSSILFGAFINGIGDQLDLKLGLGHPTVLGQHRPVNELLDHHSKREEQLLCIEISYALENRDIRCNMLILLTEDSIPFLEKRLAYLVD”, which “soluble on expression in E. coli” value is on record?
The value was “not soluble”.

For “MEEVINYRSDLFRLSDNLETLHIEEKFGIKCDLTCKIEENMTTFEFQFDLRDFKNNGFKQLTAEITIRPDPENPIFELIHRKLDILDIDEHRVNFSVENKNTQSLAETRAILELILTPIREKFSYREMFMPSQKTDAILMIGGEKLHVNKAFLSFHSDFFHELFSASSTESEIPEIPIRDVSAEDMGLLLSTIYPDLVFPTDKTAAKLLTLANRFQMRAVTAQVEHHLLWHSDIEIEKLILMANTFGMKDLLKECTCDGGNKTPGEVPISVQ”, which “soluble on expression in E. coli” value is on record?
Its value is “not soluble”.

With “MSTPIPPSSPPSTPTTRANNRTKSFSGTGTVATTACICGNVPIALSANTLADSLKVSPLYKQQDSARWNAAAQVYRTSRAVSPTLEEKEKFGFDNAYINQMISPKMSIPKTPISLEEIADMNRKRHEVEGGVIPSDDDVGPLELEAIAAVHELAHEVQDISVSEMLPRTSDLIFVNVKTQEGSPYTLELTMKGWRIASSHTDCMNGDYTKISLHTKYYRNARELLKFISPDHATRFNECVAQKLSKLAEVAVQ” as the sequence, how does the “soluble on expression in E. coli” value read?
The value was “not soluble”.

With “MGKLNLYQMKKVEIIVRGEDLDFVLDLLEKAGVKGYTIIHNLSGKGSHGFHEGHLLFNEEDVLDMVISVMPEEKVEAILEGLTPFFNKHSGVVFVSDVQVSRLEKFKNG” as the sequence, how does the “soluble on expression in E. coli” value read?
The value was “not soluble”.

Which “soluble on expression in E. coli” value does the source give for “MGSDKIHHHHHHKENNDFSSMQMKGVEQVSVKVDLDPAVERLSKAVQFRTISNQDRNDFDEKAFTDYHQFLEKAYPNVHKTLKREVLGSPRPFSLLYTWKGKDPSLPPALFYAHQDVVPVPSESRDQWAVDPFAGAVQDGYIWGRGVLDDKNQIHGILEAAEMKIKEGWQPSRTLYFVFGQDEEVGGPEGAKYIADVLEQRGIKRFAFVIDESAPLTPGIFPGIPDNTALIGIAQKGFVSLELAMNGIGGHSSQPPEESNIGILAKAITKLEAAQFPYRIHEAVRHQYRYMGPELSEDKQPMYAAVAFGKDGEITPLEQKFIDEMASQQVTRAMLHTTIAVTMFNAGIKDNVLPPSATAVVNFRPMPGDTPEVIIAHVKKAIGDDRITVRDISASTPATNVADPSSKSYQQLEKTIRQIYGNDLIVSPFFVIGGSDSKHFQARKFAPDVYTITGLQLESVKEFAGFHGVNERIRVDEYGRTIGFFYKLMDNLEEL” here?
Its value is “not soluble”.

Which “soluble on expression in E. coli” value does the source give for “SYPYILISGHKHPRLSMHRGAKKRKGEYFGPYPDSGAVRETLHLLQKIFPVRQCEDTVYSNRTRPCLMYQIGRCAGPCVSSIISDEEYAELVGFVRLFLQGKDQQVLKQLIEKMEVASQQLRFEDAAKFRDQIQAIRRVQEQQYVSEDSMDDMDVLGFAQENGIACIHILMIRQGKVLGSRSHFPKIPQNTSQQEVFDSFLTQYYLSHNEARTIPSRIILNQELADDLEPIQKALSEVAGRKVHFHTSPTGARGRYLKLSNTNALTAITTKINHKMTINQRFKALRETLGMESIMRMECFDISHTMGESTIASCVVFNNEGPVKQEYRRYNITGITGGDDYAAMGQALERRYSKQLDVEKIPDIIFIDGGKGQLNRAHEIIAQYWGDWPKRPIMIGIAKGVTRKPGLETLITVDGEEFNLPSDAPALHLIQHIRDESHNHAIAGHRAKRGKTRR” here?
The value was “not soluble”.

With “MYLSHFGFRVQPFSLTPNTEMFLGLVPHYEAIQTILAAVQMGEGVIKVTGEVGTGKTMVCRKLIEQIESQVELVYLPNPVLNGEQLQFAVARELGIDNDDPLRIVSLIQEHLIRVHSTGKKTVLIVDEAQALSPEALETLRLFGNLETEQDKLIQLVLFGQPELDERLSMHELRQFRQRITFSCGLRPLSVDEGVAYINNRLDKAGNGAHIFSIEQKKAIWRSAMGIPRLINQISHKALLAAFNDRCTLLKNHHVYAAMHDTFDARKPKFKTPVFWGWSQPLEHHHHHH” as the sequence, how does the “soluble on expression in E. coli” value read?
The value was “not soluble”.

For “MGSDKIHHHHHHMSTIEERIKEIEDEIKRTQYNKATEHHIGLLKAKIARLQMEARAHKGGGHYGFSIPKSGDATVALVGFPNVGKSSLLNVLTNSESEVGSYAFTTLKAIPGVMEYKGAEIQILDLPGIIENASYGAGRGREILSTVRSADLIVIVTDVETGGLDKIVKELYNSGIVVNRRRKNIEIKKTTSGGIRVHKPKNVDIDSEYIRQLMKEFKLVNADVYIREQVNEDDIIEAVQKNYVYIPSIVAVNKIDMNGAFDTSPLTRFGEVFKVSAKNRIGIDELREGIYRSLKLLRVYLRNKAGVVDFDKPLILTDGSTVRDVCRKINRSLIDSFRYAIISGKNRPIGEQRVGIDYPLLDEDIVTIISRN”, which “soluble on expression in E. coli” value is on record?
The value was “not soluble”.

With “MGHHHHHHSHLKDNRVVTMEVEARNLDKKDFLGKSDPFLEFFRQGDGKWHLVYRSEVIKNNLNPTWKRFSVPVQHFCGGNPSTPIQVQCSDYDSDGSHDLIGTFHTSLAQLQAVP” as the sequence, how does the “soluble on expression in E. coli” value read?
Its value is “not soluble”.
